Read-outs that look alike come from different tables or passages of the source. Values belong to the molecule of their own block, whether it stands above or below them. Square brackets hold non-standard residues; d marks the D form. Primed or numbered codes have the meaning given here. Ends that are not written are not given here. FITC′ = fluorescein isothiocyanate fluorescent label; TAMRA = tetramethylrhodamine fluorescent label; Cy5 = cyanine-5 fluorescent label; pS = N[C@@H](COP(=O)(O)O)C(=O)O
T1: 14-3-3σΔC (C-terminally truncated after T231) (human, UniProt P31947 1-231)
T1 sequence (looked up): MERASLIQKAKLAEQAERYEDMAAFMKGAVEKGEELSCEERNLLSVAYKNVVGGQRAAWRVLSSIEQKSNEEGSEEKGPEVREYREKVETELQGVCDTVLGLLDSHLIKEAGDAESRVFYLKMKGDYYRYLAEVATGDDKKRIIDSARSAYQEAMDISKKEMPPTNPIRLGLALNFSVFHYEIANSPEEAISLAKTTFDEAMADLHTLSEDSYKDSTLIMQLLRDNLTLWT

T2: 14-3-3β (human, UniProt P31946 1-246)
T2 sequence (looked up): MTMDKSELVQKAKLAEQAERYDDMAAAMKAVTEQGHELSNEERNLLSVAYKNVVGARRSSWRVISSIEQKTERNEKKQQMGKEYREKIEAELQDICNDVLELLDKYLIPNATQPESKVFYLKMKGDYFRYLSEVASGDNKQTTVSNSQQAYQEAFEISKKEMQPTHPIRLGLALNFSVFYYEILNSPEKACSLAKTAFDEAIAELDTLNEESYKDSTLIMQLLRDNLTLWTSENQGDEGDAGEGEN

T3: 14-3-3ζ (human, UniProt P63104 1-245)
T3 sequence (looked up): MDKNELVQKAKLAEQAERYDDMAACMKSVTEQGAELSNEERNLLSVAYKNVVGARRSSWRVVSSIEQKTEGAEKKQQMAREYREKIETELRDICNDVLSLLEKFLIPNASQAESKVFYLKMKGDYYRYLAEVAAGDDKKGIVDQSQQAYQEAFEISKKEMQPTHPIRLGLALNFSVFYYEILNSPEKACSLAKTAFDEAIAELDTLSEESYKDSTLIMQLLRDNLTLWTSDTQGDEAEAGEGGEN

T4: 14-3-3τ (human, UniProt P27348 1-245)
T4 sequence (looked up): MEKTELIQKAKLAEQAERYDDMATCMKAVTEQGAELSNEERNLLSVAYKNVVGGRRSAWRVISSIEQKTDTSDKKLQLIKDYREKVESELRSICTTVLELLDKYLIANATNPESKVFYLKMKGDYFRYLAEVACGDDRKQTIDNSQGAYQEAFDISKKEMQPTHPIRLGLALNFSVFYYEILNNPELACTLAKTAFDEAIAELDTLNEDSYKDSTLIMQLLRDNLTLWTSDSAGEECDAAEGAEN

T5: 14-3-3ε (human, UniProt P62258 1-255)
T5 sequence (looked up): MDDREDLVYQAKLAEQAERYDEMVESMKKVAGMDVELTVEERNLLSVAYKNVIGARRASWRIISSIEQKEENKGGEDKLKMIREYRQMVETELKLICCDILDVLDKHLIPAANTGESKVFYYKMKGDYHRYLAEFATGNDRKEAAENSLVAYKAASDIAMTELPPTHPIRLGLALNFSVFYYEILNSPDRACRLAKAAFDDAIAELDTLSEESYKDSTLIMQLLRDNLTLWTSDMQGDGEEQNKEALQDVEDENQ

T6: Cy5 labelled 13-mer Amot-p130 peptide (also: phosphoserine at 175 (S5 or S7))
T6 peptide: Cy5-GHVRSL[pS]ERLMQM

B1: FITC-labelled 13-mer Amot-p130 peptide (peptide)
peptide: {FITC′}-GHVRSL[pS]ERLMQM
modifications: also: phosphoserine at 175 (S5 or S7)
B2: 14-3-3η (natural protein, human, UniProt Q04917 1-246, looked up)
chain: MGDREQLLQRARLAEQAERYDDMASAMKAVTELNEPLSNEDRNLLSVAYKNVVGARRSSWRVISSIEQKTMADGNEKKLEKVKAYREKIEKELETVCNDVLSLLDKFLIKNCNDFQYESKVFYLKMKGDYYRYLAEVASGEKKNSVVEASEAAYKEAFEISKEQMQPTHPIRLGLALNFSVFYYEIQNAPEQACLLAKQAFDDAIAELDTLNEDSYKDSTLIMQLLRDNLTLWTSDQQDEEAGEGN

Experiments:
apo 14-3-3 = settings: ref Andrei et al., 2018; cited from earlier work
14-3-3η = target: B2; assay: fluorescence polarisation
[1] = target: T1, 14-3-3σΔC (C-terminally truncated after …); assay: crystal structure
[2] = target: T1, 14-3-3σΔC (C-terminally truncated after …); assay: crystal structure; remark: listed apart in the source
14-3-3β = target: T2, 14-3-3β; assay: fluorescence polarisation
14-3-3ζ = target: T3, 14-3-3ζ; assay: fluorescence polarisation
14-3-3τ = target: T4, 14-3-3τ; assay: fluorescence polarisation
14-3-3ε = target: T5, 14-3-3ε; assay: fluorescence polarisation
[3] = target: T6, Cy5 labelled 13-mer Amot-p130 peptide; assay: MST
[4] = target: B1; assay: fluorescence polarisation

Molecule: C=CC(C)(C)OC[C@H]1O[C@H](O[C@@H]2C3=C([C@H](C)CNC(C)=O)C[C@H](O)[C@]3(C)/C=C3/[C@@H](COC)CC[C@H]3[C@@H](C)[C@H]2O)[C@H](O)[C@@H](O)[C@@H]1O [FC-NAc]
affinity for the apo 14-3-3 (apo 14-3-3): higher affinity for the apo 14-3-3

binding result (14-3-3η): binds
Molecule: {TAMRA}-GHVRSL[pS]ERLMQM (also: phosphoserine at 175 (S5 or S7)) [TAMRA-labelled 13-mer Amot-p130 peptide]

binding result [1]: binds
Molecule: GHVRSL[pS]ERLMQM (not fully specified (C-terminus)) [13-mer Amot-p130 peptide (for crystallography)]

binding result [2]: binds
Molecule: GHVRSL[pS]ERLMQMSLATSGV (not fully specified (C-terminus)) [20-mer Amot-p130 peptide (for crystallography)]

Molecule: B1
binding result (14-3-3β): binds
binding result (14-3-3ζ): binds
binding result (14-3-3τ): binds
binding result (14-3-3ε): binds

Molecule: B2
fold stabilisation with 1 mM fragment 09 or 22 against the DMSO control [3]: 2 fold
fold stabilisation with 1 mM fragment 09 or 22 against the DMSO control [4]: 2 fold
